From patent publication US20240132578A1
Several values for one entry are separate records, joined by “and”; a condition that tells them apart may be missing. Equal values may be shown once.

Assays:
Test in all cases: cell-based or functional assay
[1] = target: HIV-1 APV6 envelope glycoprotein (Env) on pseudovirus (HIV-1)
[2] = target: HIV-1 93IN905 envelope glycoprotein (Env) on pseudovirus (HIV-1)
[3] = target: HIV-1 92RW020 envelope glycoprotein (Env) on pseudovirus (HIV-1)
[4] = target: HIV-1 JRCSF envelope glycoprotein (Env) on pseudovirus (HIV-1) (UniProt P20871)
[5] = target: HIV-1 MGRM-A-010 envelope glycoprotein (Env) on pseudovirus (HIV-1)
[6] = target: HIV-1 MGRM-C-028 envelope glycoprotein (Env) on pseudovirus (HIV-1)
[7] = target: HIV-1 94UG103 envelope glycoprotein (Env) on pseudovirus (HIV-1)
[8] = target: HIV-1 MGRM-C-026 envelope glycoprotein (Env) on pseudovirus (HIV-1)
[9] = target: HIV-1 NL43 envelope glycoprotein (Env) on pseudovirus (HIV-1)
[10] = target: HIV-1 MGRM-C-027 envelope glycoprotein (Env) on pseudovirus (HIV-1)
[11] = target: HIV-1 Env of pseudovirus MGRM-C-26 (HIV-1)
[12] = target: HIV-1 Env of pseudovirus 92TH021 (HIV-1)
[13] = target: HIV-1 Env of pseudovirus JRCSF (HIV-1) (UniProt P20871)
[14] = target: HIV-1 APV17 envelope glycoprotein (Env) on pseudovirus (HIV-1)
[15] = target: HIV-1 92BR020 envelope glycoprotein (Env) on pseudovirus (HIV-1)
[16] = target: HIV-1 APV13 envelope glycoprotein (Env) on pseudovirus (HIV-1)
[17] = target: HIV-1 JRFL envelope glycoprotein (Env) on pseudovirus (HIV-1)
[18] = target: HIV-1 93UG077 envelope glycoprotein (Env) on pseudovirus (HIV-1)
[19] = target: HIV-1 Env of pseudovirus 92BR020 (HIV-1)
[20] = target: HIV-1 Env of pseudovirus 94UG103 (HIV-1)

PGT-136 monoclonal antibody (5329_C19; 5366_P21), sequence (VH): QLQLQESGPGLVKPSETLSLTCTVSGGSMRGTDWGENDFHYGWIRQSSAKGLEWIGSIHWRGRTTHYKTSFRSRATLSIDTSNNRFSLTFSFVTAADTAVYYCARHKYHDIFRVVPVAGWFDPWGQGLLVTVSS
PGT-136 monoclonal antibody (5329_C19; 5366_P21), sequence (VL): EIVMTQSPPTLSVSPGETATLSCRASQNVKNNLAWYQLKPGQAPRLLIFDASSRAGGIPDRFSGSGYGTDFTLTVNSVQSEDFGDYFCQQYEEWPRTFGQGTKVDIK

Substance | IC50 neutralization [1] | IC50 neutralization [2] | IC50 neutralization [3] | IC50 neutralization [4] | IC50 neutralization [5] | IC50 neutralization [6] | IC50 neutralization [7] | IC50 neutralization [8] | IC50 neutralization [9] | IC50 neutralization [10] | Primary Neutralization Index (B cell culture supernatant) [11] | Primary Neutralization Index (B cell culture supernatant) [12] | Primary Neutralization Index (B cell culture supernatant) [13] | IC50 neutralization [14] | IC50 neutralization [15] | IC50 neutralization [16] | IC50 neutralization [17] | IC50 neutralization [18] | Primary Neutralization Index (B cell culture supernatant) [19] | Primary Neutralization Index (B cell culture supernatant) [20]
1496_C09 (PG9) (TCN-109) monoclonal antibody | 0.214 µg/mL | 0.048 µg/mL | 0.161 µg/mL | 0.0048 µg/mL | 0.0375 µg/mL | 0.121 µg/mL | 0.31 µg/mL | 0.113 µg/mL | 0.687 µg/mL | 2.45 µg/mL |  |  |  |  |  |  |  |  |  | 
Antibody of B cell culture well 5113_D22 (labelled PGT-132 in Table 26) |  |  |  |  |  |  |  |  |  |  | 6 | 51 | 3 |  |  |  |  |  |  | 
PGT-130 monoclonal antibody (5147_N06) | > 10 µg/mL | 0.0182 µg/mL | 0.014 µg/mL | 0.0089 µg/mL | 0.0054 µg/mL | > 10 µg/mL | 0.635 µg/mL | 0.0173 µg/mL | > 10 µg/mL | 0.0052 µg/mL |  |  |  | > 10 µg/mL | 1.12 µg/mL | 0.0345 µg/mL | 0.0346 µg/mL | > 10 µg/mL |  | 
PGT-123 monoclonal antibody (4858_P08) | 0.0328 µg/mL | 0.0071 µg/mL | 0.0038 µg/mL | 0.0423 µg/mL | 0.492 µg/mL | 0.443 µg/mL | 0.846 µg/mL | 0.0031 µg/mL | > 10 µg/mL | 0.0169 µg/mL |  |  |  | 0.18 µg/mL | 0.013 µg/mL | 0.222 µg/mL | 0.0283 µg/mL | 0.0303 µg/mL |  | 
PGT-122 (B cell culture well 4877_D15) (antibody) |  |  |  |  |  |  |  |  |  |  | 37.5 |  | 2.3 |  |  |  |  |  | 5.4 | 1.3
PGT-121 (B cell culture wells 4838_L06 and 4873_E03) (antibody) |  |  |  |  |  |  |  |  |  |  | 996 and 371 |  | 3.2 and 2.2 |  |  |  |  |  | 4.9 and 3.6 | 1.4 and 0.8
PGT-122 monoclonal antibody (4877_D15) | 0.0851 µg/mL | 0.0138 µg/mL | 0.0072 µg/mL | 0.0727 µg/mL | 1.68 µg/mL | 2.06 µg/mL | 1.46 µg/mL | 0.0089 µg/mL | > 10 µg/mL | 0.0388 µg/mL |  |  |  | 0.522 µg/mL | 0.0337 µg/mL | 0.992 µg/mL | 0.0471 µg/mL | 0.191 µg/mL |  | 
Antibody of B cell culture well 5117_E22 (labelled PGT-133 in Table 26) |  |  |  |  |  |  |  |  |  |  | 3.4 | 42.5 | 3.6 |  |  |  |  |  |  | 
PGT-135 monoclonal antibody (5343_B08; 5344_E16) | > 10 µg/mL | 0.0183 µg/mL | 0.157 µg/mL | 0.113 µg/mL | > 10 µg/mL | 2.16 µg/mL | > 10 µg/mL | 0.0123 µg/mL | 6.79 µg/mL | > 10 µg/mL |  |  |  | > 10 µg/mL | 0.104 µg/mL | 0.545 µg/mL | > 10 µg/mL | > 10 µg/mL |  | 
PGT-136 monoclonal antibody (5329_C19; 5366_P21) | > 10 µg/mL | 0.0135 µg/mL | 0.738 µg/mL | > 10 µg/mL | > 10 µg/mL | > 10 µg/mL | > 10 µg/mL | 0.0065 µg/mL | > 10 µg/mL | > 10 µg/mL |  |  |  | > 10 µg/mL | > 10 µg/mL | > 10 µg/mL | > 10 µg/mL | > 10 µg/mL |  | 
PGT-125 monoclonal antibody (5123_A06) | 0.0359 µg/mL | 0.0137 µg/mL | 0.0028 µg/mL | 0.006 µg/mL | 0.0055 µg/mL | 5.78 µg/mL | 0.0124 µg/mL | 0.0106 µg/mL | > 10 µg/mL | > 10 µg/mL |  |  |  | 7.31 µg/mL | 0.0214 µg/mL | 0.0128 µg/mL | 0.0156 µg/mL | 0.0262 µg/mL |  | 
PGT-121 monoclonal antibody (4838_L06; 4873_E03) |  |  |  |  |  |  |  |  | > 10 µg/mL |  |  |  |  |  |  |  |  |  |  | 
PGT-126 monoclonal antibody (5141_B17) | 0.0249 µg/mL | 0.0194 µg/mL | 0.0046 µg/mL | 0.0061 µg/mL | 0.0033 µg/mL | 0.283 µg/mL | 0.0091 µg/mL | 0.0076 µg/mL | > 10 µg/mL | 1.14 µg/mL |  |  |  | 0.501 µg/mL | 0.0163 µg/mL | 0.012 µg/mL | 0.014 µg/mL | 0.0256 µg/mL |  | 
